Laboratory results published in a protein production outcome set (Wang et al. 2014).

Experiment: label from the status in PepcDB records

Sequence | protein production
MSVPRPMEGRASGSARIYQAGGDQYIEEHVHHHAPGSAPLFGHPWTGPAEPREAAPDSVRMPLVGRAPRVLRDRTDLMERLRAAVAGPGSDIQVLHGMGGCGKTAVAQALFTEAVRDHGRVGLWVNASERVSLRAGMLAVAGDRGATAGELAAAAGGRRAAADLVWHYLDQSAQPWLLVLDNADDPAVLEEGSWLRPSPSGTVLVTTRHATSSLWRAPATSSHRLGVLPLEDATLVLRDLAPDAGTRESARKVARRLGCLPLALTLAGAHLAHQLLESWSMDEYDRKLTEESTALVDRGASATGGGQSRHLVGRTWQLSLDGLAERGLPEATALLRLLSCWAADPVPLSLLMPAAQGGVGLEHLDPPLAAPRVEPALRALLDHSLIEMVETDGHRCVKAHGVLLDSVAGSVPDAERALLAAAAGGLLRAALPPEGAASPRARSQVRLLAPHATGLLHRSHRHDLVTAESVRLAVRLARLVYEAGDWTAALALASTAAKTAAEHLGAEHPVTIEARSGQGTVLFRLGRYAEAADLLRPVQQEALRTLGPHDERTLDAAYELQRVLHRLGDLAHARTLLDTVLDGRRQALGEDHVATLKTRCELLELRLAQDEFDGYTAAAGELAGECERRLGPEHLVTVWARDALARGLLRSGRGAEAEELFRRVLAGQRAGYGDDHPLVYGVLIQLSRAQYAQGKRERAAESAREVAEGRAVILGEDHPETVAARAWYTEVLATPPAPDDLVG | failed
MSTEQLLVLIAQNDIKDDIVDTLIELEFLSGFSLGNICGFSREHSHFNIKEQVEGYREFCKFEIMHPAAQQAALLTALALVCKHNPCRYWIMPIYQNGTLS | not failed
MSLKICVIGSSGHFRYALEGLDEECSITGIAPGVPEEDLSKLEKAISEMNIKPKKYNNWWEMLEKEKPDILVINTVFSLNGKILLEALERKIHAFVEKPIATTFEDLEKIRSVYQKVRNEVFFTAMFGIRYRPHFLTAKKLVSEGAVGEIRLVNTQKSYKLGQRPDFYKKRETYGGTIPWVGIHAIDWIHWITGKKFLSVYATHSRLHNSGHGELETTALCHFTLENEVFASLSIDYLRPQGAPTHDDDRMRIVGTRGIVEVINERVFLTDEKGHREVPLVEKGQIFEDFLREIRGQGKCMVTPEDSILTTEIALKARLSADTGQIVLIEGHHHHHH | not failed
MPLAIIPWFELPSASLGPFTLQSFGVLSALGILAAVQLSARGAKQLGKDPQVILDFAVVGVLAGVVVGHLAHLFFYHPEELQDPLRIFKFWEGLSSMGGLAGGMIAAAVYFRRKRVRFTAYADAFALGVAPGWGIARVGCFTVHDHPGRLTDFFLAVRFPDGPRHDLGLYEAILLLSLGAVLWALHRRDVLRGRLLPLLALVYGIGRFLLDFLRATDVSYADARHLGLTFAQYFAVALVAYAVWGFARRPSDEERVRVSTGVGRR | failed
MTDIMARFVGYTGKVLPDDVTAKLQDLHKKETSQLADVIFTTMIENQRLAKELDRPSCQDTGVIQFLVECGANFPLIGELEALLRESVIKATIDSPLRHNSVETFDEYNTGKNVGKGTPTVFWEIVPNSDQCSIYTYMAGGGCSLPGKAMVLMPGAGYEGVTRFVLDVMTSYGLNACPPLLVGVGVATSVETAALLSKKALMRPIGSHNDNERAALLEKMLEDGINKIGLGPQGMSGNTSVMGVNIENTARHPSTIGVAVNVGCWSHRKGHIVFDKDLNYTITSHKGVAF | failed
MNGVFAINFFVMALMLALYISESFGAIILLFFYKDGSKKVTPYVVPIWELTGTFIAFWVVTSDFAYPSILVPAAFIYAVPLLILLIAFIGRNAFIIFGEFIKKGFIDEKAMYKIFSIFECIFCLVFVIFASSVVTGGGVILSKLAFNVGKWATTPGDVLFVVGTVIFIFGLSFIFYGLEKYKLHSIVLTYIGIILAVVAFVQIHLSISTVPLSPVLAIPILIGILAPILFYIDSTRKIVENKIFFLALLVISVYPFYSLVYPKFFGGTLPVSAFLTNSPMATAYFYITLGGGILLIAMLAYMVYVANGFNKMVAEKA | failed
MKYTQSFCFVSVIVLSSSVHLHGQNNKMNVLLIIADDMRPELGCYGIEDIVTPRLDSLARYATVFQNAYCNIPVSGASRASLFTGMYPRYPNRFTAFDASAEKDCPEALSLPECFKKNGYYVVSNGKVFHNITDHADSWSEAPWRVHPDGYGKDWAEYNKWELWQNEESSRYVHPKTLRGPFCESADVADTTYIDGRVAQKTIADLRRLHKKEKPFFLACGFWKPHLPFNAPKKYWDLYRREEIHLAQNPYRPKALPKQVTSSGEIRGYGKFVTTKDETFQREAKHGYYACVSYIDAQIGLILDELDRLGLSENTIVVILGDHGWHLGEHGFWGKHNLMNHATRAPLIVRVPHCRGGKAKGIVEFVDIYPTLCELCGVPMPKDQLQGKSFVPILQDSGKKTKQYAFIQWKGGYNIVSEQYSSTIWLQGDSVVARMIFDRQLDASENENKVHCPYLSRERDKLEAQIKIRKSQLLEHHHHHH | failed
MQNPAGNPYNLDSFWFEQLMSHPSLNHAKMATRIQDETLEREVADLVISTLNLDVSPESVDPEAPLYREGLGLDSIDILEIALVVSKRYGFQLRADNEDNVRIFGSLRSLCQHIAANRVECLEHHHHHH | not failed
TETSPDKWLIDGDTPLDEVERAIGYELPEGDYETISGLLFDHANALLKTGDVIEIPLDFEPEDYLNNTSPTQRILRITVLEVERNVPVKLALALLEDHPDNHPAPKENR | not failed
MAQAPDSSVPVRMVVDLTVDDYAAFTAYAYQRPALRRRRHASHLRFAVLLAAGLLAVILLRVWDGRQLDWGAALPAYAQALVVGLAVFALLAVGYEYALPRLARGNVRRALGRQPDNPFLGRHTLDFGPRGVDDAAAGASGTMPWEAVGQVEETASHLYLFISPLQGVIIPKRGQSADVLQAVRAQLRAHVPGAALADAADKQ | failed
MTSREDEIRDFLATHGYADWNRTPLAGDASSRRYQRLRSPTGAKAVLMDWSPEEGGDTQPFVDLAQYLRNLDISAPEIYAEEHARGLLLIEDLGDALFTEVINNDPAQEMPLYRAAVDLLIHLHDAQTPELARLDPETLSEMTRLAFSEYRYAILGDAAEDNRKRFEHRFAQILSAQLEGDMVFVHRDFHAQNLLWLPEREGLARVGVIDFQDAKLGHRAYDLVSLLQDARRDVPAQVEAQMIDHYIQATGVDESHFRSAYAVIAVQRNMRILGIFARLSQRFGKRHYIEFVPRVWAHFERGLAHPALASAAEEILNALPAPAPEVLERLRA | not failed
MAAAAAGPASSQRLFQSFSDALIDGDPQAALEELTKALEQNPDDAQYYCQRAYCHILLGKYRDGIADVKKSLELNPNNCTALLRKGICEYHEKDYASALETFAEGQKLDSTDTNFDTWIKRCQEIQNGSESEVSASQRTQSKIKYDWYQTESHVIITLMIKSVQKNDVRVGFSERELSALVKIPAGEDYSLKLRLLHPIIPEQSTFKVLSTKIEIKMKKPEAVRWEKLEGQGDEPTPKQFTADVKNMYPSSSHYTRNWDKLVGEIKEEEKNEKLEGDAALNKLFQQIYSDGSDEVKRAMNKSFMESGGTVLSTNWSDVGKRKVEINPPDDMEWKQY | failed
MLDPATRTPPSLPDFIIGGAMKSATSSLHHLLSNHEQVYLPDGETHFFCMDDPVQHSGFFFPARAPSQRAPDYDRHGETNLDWYRQLFEPAHPDQCVGDYSSTYLPAPDAPLRIKRLLPDVKLLFMLRNPVDRTYSHYWHRVKTGRAVHGFEYELQHGPSTLLLRSFYKPQLERYFDFFPEDQVKVILFERFVDHTQAVVDEVCSFLGLETAVDVAGVDAHQNRSPVPRWPGLQLLLNYCTTGIETRSEGQLPYPAQPQSSYALQGLVHHLRQLNLTPRRPPPMNDSVRACLEQIFARKNQDLGTLLGVDLTSYWPFLRKQHDEPAETAA | failed
MKPSGEDQAALAAGPWEECFQAAVQLALRAGQIIRKALTEEKRVSTKTSAADLVTETDHLVEDLIISELRERFPSHRFIAEEAAASGAKCVLTHSPTWIIDPIDGTCNFVHRFPTVAVSIGFAVRQELEFGVIYHCTEERLYTGRRGRGAFCNGQRLRVSGETDLSKALVLTEIGPKRDPATLKLFLSNMERLLHAKAHGVRVIGSSTLALCHLASGAADAYYQFGLHCWDLAAATVIIREAGGIVIDTSGGPLDLMACRVVAASTREMAMLIAQALQTINYGRDDEK | not failed
MGHHHHHHSHSVGMDTFIHRIDSTEVIYQPRRKRAKLIGKYLMGDLLGEGSYGKVKEVLDSETLCRRAVKILKKKKLRRIPNGEANVKKEIQLLRRLRHKNVIQLVDVLYNEEKQKMYMVMEYCVCGMQEMLDSVPEKRFPVCQAHGYFCQLIDGLEYLHSQGIVHKDIKPG | failed
MDLKEIVQAGAFDLHIHTTASDGEYSPTAIVKKAKEIGLRTIAITDHDTLDGIEEAVIAGKRHGINVIPAIELTTKYKGTNVDILGYNVKASEKLQAILVQLKKHREGRAMQIIEKFNDIGFTITLDEVKQFSEDGVIARPHIAKAIVKKGYVLDYQTVFDEYLADGKPCAIDKMILTPEEGIKLIHEAGGKAILAHPVYLEDTLVRELLALDFDGIEVWHRNHDETDQEKYKMLATEFALIKTGGSDFHTDEHSLGQFGWKADEE | failed
MSSARLVIAGLNGGTGKTILSLGTVRALTNAGHSVKPFKKGPDYIDAEWLGLAAGRAATNLDPFFLDAARLQSLFLHASAGASISIIEGNRGLYDGRDVTGSCSTAELARILDSPVVLAMDCTKMTRTAAAILSGVAAFEPGVKLAGVVLNRTANERHRSMLRQCIEHYTDIPVLGALPRLRDNPIPERHMGLVSDREFAQCAGELDRVAQFVAQHVDVERMAEIARSAQPLASNEPFWPVVAEGDGVRPRIGYVRDAALWFYYEENLEALRQAGADLVELRIIDGDPWPTLDGLYLGGGFPETLASELSACRERLAGIREAALAGLPVYAECGGFMVLGESIVMDGVEYPMSGVFPVQTVFHPKPQGLGYVEAEVVAENPFFPQGMVFRGHEFHYSACRPRDGGAVTHALRLNPGTGMGGGADGLVQANTFAAYTHIFGPAVQGWAERFVRAARGHRDQLNKGTDLSLEHHHHHH | failed
MREEELNTEKVVAAIANPVENEVRKVWEDVVEKIEQRVAVIEQASHKLLQNKVSEEILSKAKVEAHKLAGSLGMFGSDEGSQIAQEIESLLDNGKKLKASGGKHLGQVVELEHHHHHH | failed
MTGPLAAARSVAATKSMTAPTVDERPDIKKGLAGVVVDTTAISKVVPQTNSLTYRGYPVQDLAARCSFEQVAFLLWRGELPTDAELALFSQRERASRRVDRSMLSLLAKLPDNCHPMDVVRTAISYLGAEDPDEDDAAANRAKAMRMMAVLPTIVAIDMRRRRGLPPIAPHSGLGYAQNFLHMCFGEVPETAVVSAFEQSMILYAEHGFNASTFAARVVTSTQSDIYSAVTGAIGALKGRLHGGANEAVMHDMIEIGDPANAREWLRAKLARKEKIMGFGHRVYRHGDSRVPTMKRALERVGTVRDGQRWLDIYQVLAAEMASATGILPNLDFPTGPAYYLMGFDIASFTPIFVMSRITGWTAHIMEQATANALIRPLSAYCGHEQRVLPGTF | not failed
MRAGSGQCTGAAMDRLTEMEAFAMVVDQGGFTDAARKMGISKSAVSKHVSALEARLGARLLNRTTRRVSPTEIGLAYYDRARRVLTDAGEADALVTSMQTAPSGHLRLSVATDFGVALLAPILAEFLLDYPDITVTMVLNNRSVELISEGFDMAIRVGDLEDSSLRARKLTETTRRMIASPGYLQRHGRPMKIDDLTDHRLLYHSTQAHGNVWRLLSPSGEPRQVRAPGFLTVNDGHSLLKAAVSGLGIAHLPEFLFAEAMRAGLVEEVLPDLPVETLGIHAIYPAGRFTQPKVRAFIDFLVRRFLEKGPIGN | failed
MKKILVGIPNYNNAAYIVDTIESVLKQSYSGVDVVVFDNASTDDSVEIIENTFLNNPNVLLKKSASNVGPTMNHNRCLEYAIDNEYDYLKVLSSDDVLLPNIIQEQFELLESEPRGAFATCNMIVTDDKLTKIKDHDFLGSNTDGNAVIKKCASHSANYIGGPSNGLLRVSCIGATRFSPEYKWLSDLKFYCDLLANRPFINTGTNGFFYRRHDNTDSSHVSKIKNLQRKESIRFSGEYGGNFLTKIKIYLRDIKSRLLLEHHHHHH | failed
